A value given as a limit tells only on which side of the number the result lay.

Kd data for 2 substances are collected here from article PMC13038408.

The target of one experiment is RSVF-multi-4 K29L. Kind of experiment: SPR. (In general: SPR reads the build-up and loss of mass on a sensor chip optically.)
For experiment [1], the target named is prefusion RSVF sc9-10 DS-Cav1-A149C;Y458C;S46G;E92D;S215P;K465Q thermostabilized variant (DS2) (respiratory syncytial virus) (UniProt P03420). Description: SPR.

motavizumab Fab, sequence (VH): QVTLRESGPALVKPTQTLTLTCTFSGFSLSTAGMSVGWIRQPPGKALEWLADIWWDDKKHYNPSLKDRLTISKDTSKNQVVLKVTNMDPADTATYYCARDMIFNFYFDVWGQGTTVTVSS
motavizumab Fab, sequence (VL): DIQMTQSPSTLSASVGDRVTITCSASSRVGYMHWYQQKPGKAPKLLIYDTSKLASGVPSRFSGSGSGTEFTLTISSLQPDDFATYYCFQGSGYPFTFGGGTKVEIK

A word on the Kd: it is the concentration at which binding is half-saturated. In the case of RSV90 Fab, the figures for the dissociation constant (Kd) (in the experiment with RSVF-multi-4 K29L; in experiment [1]) were more than 1000 nM and 0.9 nM, respectively.
Regarding motavizumab Fab, the dissociation constant Kd in experiment [1] came to 0.015 nM.
